PMC9513805, “A natural transdifferentiation event involving mitosis is empowered by integrating signaling inputs with conserved plasticity factors”

Tests used:
SOX-2 = SOX-2 (Caenorhabditis elegans, UniProt Q21305 1-283); assay: EMSA; 20 mM Tris-HCl pH 8.0, 100 mM NaCl, 100 ug/mL BSA, 1 mM EDTA, 1 mM DTT, 0.1% NP-40; 20 min on ice (supershift 30 min at room temperature), 200 ng Cy5 probe; 6%; conditions: protein: recombinant; tags: N-terminal 6xHis, C-terminal HA (pSJ6094); label: Cy5 on forward strand; blunt
HMG-POP-1 = target: T1, HMG-POP-1 (Caenorhabditis elegans, UniProt Q10666 181-281); assay: as above; conditions: protein: recombinant; tags: N-terminal 6xHis (pSJ769); label: Cy5 on forward strand; blunt
T1 sequence: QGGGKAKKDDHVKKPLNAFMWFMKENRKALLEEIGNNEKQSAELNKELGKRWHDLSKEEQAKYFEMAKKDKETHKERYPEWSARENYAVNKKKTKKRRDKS

Chain of SOX-2 (Q21305 whole entry): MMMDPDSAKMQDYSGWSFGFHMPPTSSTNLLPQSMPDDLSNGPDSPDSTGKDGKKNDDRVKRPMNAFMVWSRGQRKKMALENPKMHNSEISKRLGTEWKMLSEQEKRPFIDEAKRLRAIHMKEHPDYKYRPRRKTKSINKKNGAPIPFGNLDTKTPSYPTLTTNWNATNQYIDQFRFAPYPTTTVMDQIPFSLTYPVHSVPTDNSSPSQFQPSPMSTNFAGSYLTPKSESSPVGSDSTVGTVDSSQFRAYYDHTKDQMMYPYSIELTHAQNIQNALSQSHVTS

B1: lim-6 intron 4 probe 1 (dsDNA)
DNA 1: TACGATTTGCAAACAACAAACATTCCAGACAGAT
DNA 2: ATCTGTCTGGAATGTTTGTTGTTTGCAAATCGTA
B1: binds (SOX-2); binds (HMG-POP-1).

B2: lim-6 intron 4 probe 2 (dsDNA)
DNA 1: CTGCTACCGTAGTGCTTTGTTGATTTAACACACA
DNA 2: TGTGTGTTAAATCAACAAAGCACTACGGTAGCAG
B2: binds (SOX-2); binds (HMG-POP-1).
